From patent US20220251194A1 (Merck Sharp & Dohme, published 2022)
Each block holds one binder with its values, some of them ahead of it.

Key:
[1] = biological target: T1, recombinant human or cyno PD-1 (immobilized onto CM5 chip, Example 1) (human or cyno ( which was …, UniProt Q15116 25-167, limits assumed)); assay: SPR (Biacore T200), PD-1 immobilized on CM5 chip, Fab as analyte; lower end of the printed range 2.80-2.90
T1 construct: also called antigen
Experimental: (§1) Immobilization of recombinant human or cyno PD-1 onto CM5 chip: A CM5 sensor chip was activated in FC2 by 7-min. injection (10 μl/min.) of freshly prepared 1:1 50 mM NHS: 200 mM EDC. PD-1 at a concentration of 0.2 μg/ml in 10 mM sodium acetate buffer pH 5.0 was injected onto the activated chip at 5 μl/min. (HBS-EP running buffer: 10 mM HEPES, 150 mM NaCl, 3.4 mM EDTA, 0.005% surfactant P20, pH 7.4) for 120 seconds. The remaining active coupling sites were blocked with 7 min. injection of 1M ethanolamine at 10 μl/min.
(§2) Binding kinetics measurement: Various concentrations of the Fabs were injected with a flow rate of 30 μl/min for 180 seconds(s) during the association phase. The dissociation of bound antibody was monitored by flowing HBS-EP buffer over the chip surface for 600 seconds. At the end of each cycle, the sensor surfaces were regenerated by injecting regeneration buffer (10 mM glycine buffer with pH 1.7) for 180 seconds. After sensograms were corrected for signals from a reference flow, kinetics were calculated with BIACORE T 200 evaluation software ver.1.0 (Biacore, GE, USA).

[2] = biological target: T1, recombinant human or cyno PD-1 …; assay: SPR (Biacore), Fab against PD-1
Experimental: as §1, §2

[3] = biological target: T2, human PD1 on PathHunter U2OS dimer cells (human, UniProt Q15116 25-288); assay: PathHunter dimerization assay, U2OS cells co-expressing human PD1 and LAG3; the signal needs both targets to be bound on the same cell
T2 construct: whole, on cells; On Human PD1/LAG3 dimer cell Clone #9 (Lot 56AUA) and Human PD1/TIGIT dimer cell Clone #5 (Lot 14BAU); also called hPD1; not shown: beta-galactosidase fragment (ProLink or Enzyme Acceptor)
T2 sequence (Q15116 25-288): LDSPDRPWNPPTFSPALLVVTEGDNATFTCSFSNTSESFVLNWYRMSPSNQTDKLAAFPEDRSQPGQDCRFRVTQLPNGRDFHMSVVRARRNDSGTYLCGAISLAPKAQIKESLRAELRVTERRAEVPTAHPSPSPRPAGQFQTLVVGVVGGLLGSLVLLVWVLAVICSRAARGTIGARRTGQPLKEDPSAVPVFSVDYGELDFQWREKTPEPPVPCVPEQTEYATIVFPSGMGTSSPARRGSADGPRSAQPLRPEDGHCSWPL

human TIGIT (94AGV) = biological target: T3, human TIGIT (94AGV) (human, UniProt Q495A1 22-141, limits assumed); assay: SPR (Biacore T200 or 4000), antibody captured via anti-human Fc, antigen as analyte
T3 construct: Lot 94AGV is not described further
T3 sequence (looked up): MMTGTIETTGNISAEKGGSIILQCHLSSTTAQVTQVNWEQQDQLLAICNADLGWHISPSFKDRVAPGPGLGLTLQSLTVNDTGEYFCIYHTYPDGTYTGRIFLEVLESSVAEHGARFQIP
Experimental: (§3) Binding affinities were measured using a Biacore T200 or Biacore 4000 biosensor (GE Healthcare, Chicago, Ill.). The following running buffer, 10 mM HEPES, 150 mM NaCl, 0.05% v/v Surfactant P20, 3 mM EDTA (GE Healthcare, BR100669, Chicago, Ill.), was used for immobilization, sample dilution and data collection. All experiments were performed at 25° C. Antigen binding to antibodies captured via an anti-human Fc antibody was measured using a Series S Sensor Chip CM5 (GE Healthcare, 29149603, Chicago, Ill.). An anti-human Fc antibody was immobilized on all surfaces of the chip according to the instructions in the Human Antibody Capture Kit (GE Healthcare, BR100839, Chicago, Ill.) and the Amine Coupling Kit (GE Healthcare, BR100633, Chicago, Ill.). […] After the antigen injections the dissociation of the interaction was monitored for 15 minutes. Between binding cycles the antibody and antigen were removed from the chip with a 30 second injection of 3 M MgCl₂.
(§4) The data were processed and fit using Biacore T200 Evaluation Software version 2.0 or Biacore 4000 Evaluation Software version 1.1 (GE Healthcare, Chicago, Ill.). The data were “double referenced” by subtracting the response from a negative control flowcell and subtracting the response from a buffer injection or the average response from two buffer injections. The data were then fit with the ‘1:1 Binding’ model to determine the association rate constant, kₐ (M⁻¹s⁻¹, where “M” equals molar and “s” equals seconds) and the dissociation rate constant, kd (s⁻¹). These rate constants were used to calculate the equilibrium dissociation constant, KD (M)=[…].

[4] = biological target: T4, Human PD1 (50AFR), [VEGF leader]-Sino-Bio-PD-1_H-[His9G] (human, UniProt Q15116 25-167); assay: as above
T4 construct: Expressed with a VEGF leader; also called PD-1-His (50AFR)
T4 sequence (Q15116 25-167): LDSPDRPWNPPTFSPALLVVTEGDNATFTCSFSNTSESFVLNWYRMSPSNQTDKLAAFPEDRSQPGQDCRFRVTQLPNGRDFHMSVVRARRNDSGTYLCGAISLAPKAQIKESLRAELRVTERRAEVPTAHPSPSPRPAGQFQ
Experimental: as §3, §4

human LAG-3 (60AXE) = biological target: T5, human LAG-3 (60AXE) (human, UniProt P18627 23-450, limits assumed); assay: as above
T5 construct: Lot 60AXE is not described further
T5 sequence (looked up): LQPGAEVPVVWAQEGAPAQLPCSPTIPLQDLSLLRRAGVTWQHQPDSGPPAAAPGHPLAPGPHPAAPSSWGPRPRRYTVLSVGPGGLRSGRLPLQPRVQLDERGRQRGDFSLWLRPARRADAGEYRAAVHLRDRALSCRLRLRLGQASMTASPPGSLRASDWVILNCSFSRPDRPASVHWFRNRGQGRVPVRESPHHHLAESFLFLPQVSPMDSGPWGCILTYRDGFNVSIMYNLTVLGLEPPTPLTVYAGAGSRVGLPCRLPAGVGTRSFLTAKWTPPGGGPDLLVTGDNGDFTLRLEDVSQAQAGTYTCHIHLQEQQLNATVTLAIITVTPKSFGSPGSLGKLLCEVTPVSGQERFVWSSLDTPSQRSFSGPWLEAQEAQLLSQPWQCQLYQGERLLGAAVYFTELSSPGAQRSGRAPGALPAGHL
Experimental: as §3, §4

T1 sequence (Q15116 25-167 limits assumed): as the sequence (Q15116 25-167) above

- Kd [1]: 0.28 to 0.29 nM
B1: Fab001 (humanized 08A Fab with S61N glycosylation site correction) (Fab, V domains shown)
VH: EVQLVQSGAEVKKPGASVKVSCKASGYTFTSYYLYWVRQAPGQGLEWIGGVNPSNGGTNFNEKFKSRVTLTVDTSISTAYMELSRLRSDDTAVYYCTRRDSNYDGGFDYWGQGTTVTVSS
VL: DIVMTQTPLSLSVTPGQPASISCRASKSVSTSGFSYLHWYLQKPGQPPQLLIFLASNLESGVPDRFSGSGSGTDFTLKISRVEAEDVGVYYCQHSWELPLTFGQGTKLEIKR
notes: Fab with IgG4 CH1 and kappa light chain

- fold improvement in KD over 08A [2]: 2 fold
B2: Fab 004 (Fab, V domains shown)
VH: EVQLVQSGAEVKKPGASVKVSCKASGYTFTSYYLYWVRQAPGQGLEWIGGVNPSNGGTNFNEKFKSRVTLTVDTSISTAYMELSRLRSDDTAVYYCTRRLSHYDGGFDYWGQGTTVTVSS
VL: DIVMTQTPLSLSVTPGQPASISCRASKSVSTSGFSYLHWYLQKPGQPPQLLIFLASNLESGVPDRFSGSGSGTDFTLKISRVEAEDVGVYYCQHSWELPLTFGQGTKLEIKR
notes: also called 3G9; H3G9

- binding result [3]: no binding
B3: Humanized x [LAG3_H][TIGIT_H] BsAb (22D2 VH6 C-term 31C6 scFv VL-VH / VL3 Y31W) IgG1 L234A L235A D265S / Kappa (Lot 80BCK) (bispecific antibody)
heavy: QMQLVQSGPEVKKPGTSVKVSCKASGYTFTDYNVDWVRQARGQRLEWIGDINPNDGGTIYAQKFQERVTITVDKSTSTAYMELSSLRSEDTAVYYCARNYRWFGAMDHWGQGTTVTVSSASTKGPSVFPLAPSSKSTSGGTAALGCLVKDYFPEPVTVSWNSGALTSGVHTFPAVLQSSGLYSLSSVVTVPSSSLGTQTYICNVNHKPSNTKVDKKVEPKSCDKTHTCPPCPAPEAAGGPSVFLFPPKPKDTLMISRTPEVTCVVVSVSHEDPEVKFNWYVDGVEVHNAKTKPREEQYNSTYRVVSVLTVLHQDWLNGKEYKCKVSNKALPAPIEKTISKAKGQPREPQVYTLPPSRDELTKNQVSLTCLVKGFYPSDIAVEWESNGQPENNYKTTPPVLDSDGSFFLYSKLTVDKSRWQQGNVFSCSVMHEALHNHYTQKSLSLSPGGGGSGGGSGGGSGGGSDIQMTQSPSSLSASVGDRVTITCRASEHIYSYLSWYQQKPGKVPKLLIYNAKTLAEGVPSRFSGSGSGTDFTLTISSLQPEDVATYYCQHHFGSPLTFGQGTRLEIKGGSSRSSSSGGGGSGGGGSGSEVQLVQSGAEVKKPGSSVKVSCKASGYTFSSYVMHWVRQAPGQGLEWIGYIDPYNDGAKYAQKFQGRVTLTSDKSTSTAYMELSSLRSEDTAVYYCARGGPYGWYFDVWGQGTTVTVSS
light: DIVMTQTPLSLSVTPGQPASISCKASQSLDWEGDSDMNWYLQKPGQPPQLLIYGASNLESGVPDRFSGSGSGTDFTLKISRVEAEDVGVYYCQQSTEDPRTFGGGTKVEIKRTVAAPSVFIFPPSDEQLKSGTASVVCLLNNFYPREAKVQWKVDNALQSGNSQESVTEQDSKDSTYSLSSTLTLSKADYEKHKVYACEVTHQGLSSPVTKSFNRGEC
notes: Anti-LAG3 IgG1 with an anti-TIGIT scFv at the C-terminus of the heavy chain; also called 80BCK (control); Hz x Hu [LAG3]; [TIGIT]; BsAb (Y31W)

- Kd (human TIGIT (94AGV)): 1.09 nM
- Kd [4]: 0.289 nM
- Kd (human LAG-3 (60AXE)): 0.023 nM
B4: anti-PD-1/LAG-3/TIGIT trispecific antibody (TsAbY31W) (Lot 30BCM) (other)
heavy 1: EVQLVQSGAEVKKPGASVKVSCKASGYTFTSYYLYWVRQAPGQGLEWIGGVNPSNAGTNFNEKFKSRVTLTVDTSISTAYMELSRLRSDDTAVYYCTRRLSHYDGGFDYWGQGTTVTVSSASTKGPSVFPLAPSSKSTSGGTAALGCEVTDYFPEPVTVSWNSGALTSGVHTFPAVLESSGLYSLLSVVTVPSSSLGTQTYICNVNHKPSNTKVDKKVEPKSCDKTHTCPPCPAPEAAGGPSVFLFPPKPKDTLMISRTPEVTCVVVSVSHEDPEVKFNWYVDGVEVHNAKTKPREEQYNSTYRVVSVLTVLHQDWLNGKEYKCKVSNKALPAPIEKTISKAKGQPREPQVYVYPPSRDELTKNQVSLTCLVKGFYPSDIAVEWESNGQPENNYKTTPPVLDSDGSFALVSKLTVDKSRWQQGNVFSCSVMHEALHNHYTQKSLSLSPGGGGSGGGSGGGSGGGSDIQMTQSPSSLSASVGDRVTITCRASEHIYSYLSWYQQKPGKVPKLLIYNAKTLAEGVPSRFSGSGSGTDFTLTISSLQPEDVATYYCQHHFGSPLTFGQGTRLEIKGGSSRSSSSGGGGSGGGGSGSEVQLVQSGAEVKKPGSSVKVSCKASGYTFSSYVMHWVRQAPGQGLEWIGYIDPYNDGAKYAQKFQGRVTLTSDKSTSTAYMELSSLRSEDTAVYYCARGGPYGWYFDVWGQGTTVTVSS
light 1: DIVMTQTPLSLSVTPGQPASISCRASKSVSTSGFSYLHWYLQKPGQPPQLLIFLSKYRSSGVPDRFSGSGSGTDFTLKISRVEAEDVGVYYCSQAYHLPLTFGQGTKLEIKRTVAAPSVFIFPPSDERLKSGTASVVCLLNNFYPREAKVQWKVDNALQSGNSQESVTEQDSKDSTYSLSSRLTLSKADYEKHKVYACEVTHQGLSSPVTKSFNRGEC
heavy 2: QMQLVQSGPEVKKPGTSVKVSCKASGYTFTDYNVDWVRQARGQRLEWIGDINPNDGGTIYAQKFQERVTITVDKSTSTAYMELSSLRSEDTAVYYCARNYRWFGAMDHWGQGTTVTVSSASTKGPSVFPLAPSSKSTSGGTAALGCLVKDYFPEPVTVSWNSGALTSGVHTFPAVLQSSGLYKLSSVVTVPSSSLGTQTYICNVNHKPSNTKVDKKVEPKSCDKTHTCPPCPAPEAAGGPSVFLFPPKPKDTLMISRTPEVTCVVVSVSHEDPEVKFNWYVDGVEVHNAKTKPREEQYNSTYRVVSVLTVLHQDWLNGKEYKCKVSNKALPAPIEKTISKAKGQPREPQVYVLPPSRDELTKNQVSLLCLVKGFYPSDIAVEWESNGQPENNYLTWPPVLDSDGSFFLYSKLTVDKSRWQQGNVFSCSVMHEALHNHYTQKSLSLSPGGGGSGGGSGGGSGGGSDIQMTQSPSSLSASVGDRVTITCRASEHIYSYLSWYQQKPGKVPKLLIYNAKTLAEGVPSRFSGSGSGTDFTLTISSLQPEDVATYYCQHHFGSPLTFGQGTRLEIKGGSSRSSSSGGGGSGGGGSGSEVQLVQSGAEVKKPGSSVKVSCKASGYTFSSYVMHWVRQAPGQGLEWIGYIDPYNDGAKYAQKFQGRVTLTSDKSTSTAYMELSSLRSEDTAVYYCARGGPYGWYFDVWGQGTTVTVSS
light 2: DIVMTQTPLSLSVTPGQPASISCKASQSLDWEGDSDMNWYLQKPGQPPQLLIYGASNLESGVPDRFSGSGSGTDFTLKISRVEAEDVGVYYCQQSTEDPRTFGGGTKVEIKRTVAAPSVFIFPPSDEELKSGTATVVCLLNNFYPREAKVQWKVDNALQSGNSQESVTEQDSKDSTYSLSSYLELSKADYEKHKVYACEVTHQGLSSPVTKSFNRGEC
notes: Trispecific heterodimeric IgG1 / kappa; also called Y31W mutant; Hz x Hu [PD-1]; [TIGIT]; [LAG3]; TsAb (Y31W)
